Data as given in US20200377590A1 (Hoffmann-La Roche, published 2020).
Residue numbers refer to the chain shown, from its start.

T1: CD81 (UniProt P60033 1-236, limits assumed)
T1 construct: whole, on cells; also called CD81 receptor
T1 sequence (looked up): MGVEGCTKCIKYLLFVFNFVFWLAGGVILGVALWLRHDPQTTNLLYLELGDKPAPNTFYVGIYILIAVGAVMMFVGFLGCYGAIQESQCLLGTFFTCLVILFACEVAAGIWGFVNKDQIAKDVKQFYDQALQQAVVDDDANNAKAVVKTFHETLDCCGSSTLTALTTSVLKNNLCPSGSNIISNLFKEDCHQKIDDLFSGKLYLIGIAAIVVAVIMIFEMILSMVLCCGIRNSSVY

B1: CD81K04 HC JA_GG-14-hVH_1_69-GA / LC GG-04-hVK_4_1 (antibody, V domains shown)
VH: QVQLVQSGAEVKKPGSSVKVSCKASGYTFSSSWMNWVRQAPGQGLEWMGRIYSGDGDAIYNGKFKGKATITADESTSTAYMELSSLRSEDTAVYYCAREGKTGDLLLRSWGQGTLVTVSS
VL: DIVMTQSPDSLAVSLGERATINCKSSKSVSTSIYSYLAWYQQKPGQPPKLLIYYASTRESGVPDRFSGSGSGTDFTLTISSLQAEDVAVYYCQHSREFPYTFGQGTKLEIK
notes: human constant region
B2: CD81K04 HC JA_GG-14-hVH_1_69-GA / LC JA_GG-07-hVK_7_3 (antibody, V domains shown)
VH: B1 VH
VL: DIVLTQSPASLAVSPGQRATITCRASKSVSTSIYSYMHWYQQKPGQPPKLLIKYASNKDTGVPARFSGSGSGTDFTLTINPVEANDAANYYCLHSREFPYTFGQGTKLEIK
notes: human constant region
B3: CD81K13 HC 04-hVH_1_69 / LC CD81K13 (antibody, V domains shown)
VH: EVQLVESGGGLVQPGRSLRLSCTASGFNFKDSYLHWVRQAPGQGLEWMGRIDTGNGNVKFDPKFQGRVTITADESTSTAYMELSSLRSEDTAVYYCVPYGYGFHSWGQGTLVTVSS
VL: DIQMTQSPASLSVSVGETVTITCRASENIYRTLAWYLQKQGKSPQLLVYGATTLADGVPSRFSGSGSGTQYYLKINSLQSEDFGTYHCQHFWGTPWTFGGGTKVEIK
notes: human constant region
B4: CD81K13 HC 04-hVH_1_69 / LC 1c-hVK_3_15 (antibody, V domains shown)
VH: B3 VH
VL: EIVMTQSPATLSVSPGERATLSCRASENIYRTLAWYQQKPGQAPRLLIYGATTLADGIPARFSGSGSGTEFTLTISSLQSEDFGVYYCQHFWGTPWTFGQGTKVEIK
notes: human constant region
B5: CD81K13 HC 04-hVH_1_69 / LC 01-hVK_3_15 (antibody, V domains shown)
VH: B3 VH
VL: B4 VL with L54R, D56T
notes: human constant region
B6: CD81K13 HC 04-hVH_1_69 / LC 1b-hVK_3_15 (antibody, V domains shown)
VH: B3 VH
VL: B4 VL with G84A
notes: human constant region
B7: CD81K13 HC 06-hVH_1_3 / LC 04-hVK_1_9 (antibody, V domains shown)
VH: QVQLVQSGAEVKKPGASVKVSCKASGYTFKDSYLHWVRQAPGQRLEWMGRIDTGNGNVKFDPKFQGRVTITTDTSASTAYMELSSLRSEDTAVYYCAPYGYGFHSWGQGTLVTVSS
VL: DIQLTQSPSFLSASVGDRVTITCRASENIYRTLAWYQQKPGKAPKLLIYAATTLASGVPSRFSGSGSGTEFTLTISSLQPEDFGTYYCQHFWGTPWTFGQGTKVEIK
notes: human constant region
B8: CD81K13 HC 04-hVH_1_69 / LC 05-hVK_1_39 (antibody, V domains shown)
VH: B3 VH
VL: B7 VL with L4M, F10S, E70D, G84A
notes: human constant region
B9: CD81K13 HC 04-hVH_1_69 / LC 04-hVK_1_9 (antibody, V domains shown)
VH: B3 VH
VL: B7 VL
notes: human constant region
B10: CD81K13 HC 04-hVH_1_69 / LC 5b-hVK_1_39 (antibody, V domains shown)
VH: B3 VH
VL: B7 VL with L4M, F10S, A50G, S56D, E70D, G84A
notes: human constant region
B11: CD81K13 HC 04-hVH_1_69 / LC 5b-hVK_1_39-GA (antibody, V domains shown)
VH: B3 VH
VL: B7 VL with L4M, F10S, A50G, S56D, E70D, G84A
notes: human constant region
B12: CD81K13 HC 04-hVH_1_69 / LC 06-hVK_1_39 (antibody, V domains shown)
VH: B3 VH
VL: B7 VL with L4M, F10S, E70D
notes: human constant region
B13: CD81K13 HC 04-hVH_1_69 / LC 03-hVK_1_9 (antibody, V domains shown)
VH: B3 VH
VL: B7 VL with G84A
notes: human constant region
B14: CD81K13 HC 06-hVH_1_3 / LC 06-hVK_1_39 (antibody, V domains shown)
VH: B7 VH
VL: B7 VL with L4M, F10S, E70D
notes: human constant region
B15: CD81K13 HC 07-hVH_1_3 / LC 07-hVK_1_27 (antibody, V domains shown)
VH: B7 VH with R44G
VL: B7 VL with L4M, F10S, A43V, E70D, F83V, H90K
notes: human constant region
B16: CD81K13 HC 07-hVH_1_3 / LC 03-hVK_1_9 (antibody, V domains shown)
VH: B7 VH with R44G
VL: B7 VL with G84A
notes: human constant region
B17: CD81K13 HC 07-hVH_1_3 / LC 04-hVK_1_9 (antibody, V domains shown)
VH: B7 VH with R44G
VL: B7 VL
notes: human constant region
B18: CD81K13 HC 07-hVH_1_3 / LC 05-hVK_1_39 (antibody, V domains shown)
VH: B7 VH with R44G
VL: B7 VL with L4M, F10S, E70D, G84A
notes: human constant region
B19: CD81K13 HC 07-hVH_1_3 / LC 06-hVK_1_39 (antibody, V domains shown)
VH: B7 VH with R44G
VL: B7 VL with L4M, F10S, E70D
notes: human constant region
B20: CD81K13 HC 07-hVH_1_3 / LC 5b-hVK_1_39-GA (antibody, V domains shown)
VH: B7 VH with R44G
VL: B7 VL with L4M, F10S, A50G, S56D, E70D, G84A
notes: human constant region
B21: CD81K13 HC 07-hVH_1_3 / LC 5b-hVK_1_39 (antibody, V domains shown)
VH: B7 VH with R44G
VL: B7 VL with L4M, F10S, A50G, S56D, E70D, G84A
notes: human constant region
B22: CD81K13 HC 06-hVH_1_3 / LC 07-hVK_1_27 (antibody, V domains shown)
VH: B7 VH
VL: B7 VL with L4M, F10S, A43V, E70D, F83V, H90K
notes: human constant region
B23: CD81K13 HC 06-hVH_1_3 / LC 5b-hVK_1_39 (antibody, V domains shown)
VH: B7 VH
VL: B7 VL with L4M, F10S, A50G, S56D, E70D, G84A
notes: human constant region
B24: CD81K13 HC 06-hVH_1_3 / LC 5b-hVK_1_39-GA (antibody, V domains shown)
VH: B7 VH
VL: B7 VL with L4M, F10S, A50G, S56D, E70D, G84A
notes: human constant region
B25: CD81K13 HC 06-hVH_1_3 / LC 05-hVK_1_39 (antibody, V domains shown)
VH: B7 VH
VL: B7 VL with L4M, F10S, E70D, G84A
notes: human constant region

What follows are binders tested against T1, CD81 (assay: cell ELISA;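 note: antibody binding to HuH7 cells expressing CD81 versus a CD81-negative HuH7 control line, bound antibody detected by secondary reagent, absorbance at 450 nm with 620 nm reference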).
Description: For the binding cell ELISA assay, HuH7-Rluc-H3 (positive cell line expressing CD81) and HuH7-Rluc-L1 (negative control cell line) were propagated in F-12 DMEM medium with 10% FCS at 37° C. and 5% CO₂. On day 1, the cells were trypsinized at approximately 90% confluence and resuspended at 4×10⁵ cells/mL. […] On day 2, the antibody samples to be tested were prepared in a separate polypropylene round bottom plate with a twofold desired concentration with a final volume of 120 μl. All of the assay samples were diluted in cell culture medium. […] After fixation, each well was washed 3 times with 200 μL PBS/0.05% Tween. The secondary incubation step for detection of bound anti-CD81 antibodies was performed for 2 h at room temperature on a reciprocal shaker. […] Each well was washed three times with 200 μL PBS/0.05% Tween to remove unbound antibodies. […] The absorbance was read using the ELISA Tecan reader at 450 nm with 620 nm reference wavelength.

Row | Binder | ELISA data
1 | B1 | 0.12
2 | B2 | 0.125

Molecular target: T1, CD81
Test: cell ELISA
Remark: another data set of the same source

Row | Binder | ELISA data
3 | B3 | 0.776
4 | B4 | 0.395
5 | B5 | 0.513
6 | B6 | 0.277
7 | B7 | 0.371
8 | B8 | 0.776
9 | B9 | 0.459
10 | B10 | 0.428
11 | B11 | 0.403
12 | B12 | 0.386
13 | B13 | 0.52
14 | B14 | 0.323
15 | B15 | 0.073
16 | B16 | 0.331
17 | B17 | 0.141
18 | B18 | 0.4
19 | B19 | 0.269
20 | B20 | 0.363
21 | B21 | 0.448
22 | B22 | 0.078
23 | B23 | 0.388
24 | B24 | 0.37
25 | B25 | 0.315

Molecular target: T1, CD81
Test: cell ELISA
Remark: another data set of the same source

Row | Binder | ELISA data
26 | B1 | 0.107
27 | B2 | 0.107
